Source: patent US20240239894A1, “THERAPEUTIC BINDING MOLECULES” (MedImmune Limited, priority 2020, published 2024)
“Also recorded” adds a separate entry of the source.

B1: E02-GL-SG3249: clone E02-GL (Maia heavy chain backbone) conjugated to the PBD cytotoxin SG3249 (conjugate)
heavy: QVQLQQWGAGLLKPSETLSLACTVYGGSFSGYYWNWIRQPPGKGLEWIGEINHSGSTSYNPSLKSRVTISVDTSKNQFSLKLSSVTAADTAVYYCARVLYNWNVDSWGQGTLVTVSSASTKGPSVFPLAPSSKSTSGGTAALGCLVKDYFPEPVTVSWNSGALTSGVHTFPAVLQSSGLYSLSSVVTVPSSSLGTQTYICNVNHKPSNTKVDKRVEPKSCDKTHTCPPCPAPELLGGPSCVFLFPPKPKDTLMISRTPEVTCVVVDVSHEDPEVKFNWYVDGVEVHNAKTKPREEQYNSTYRVVSVLTVLHQDWLNGKEYKCKVSNKALPAPIEKTISKAKGQPREPQVYTLPPSREEMTKNQVSLTCLVKGFYPSDIAVEWESNGQPENNYKTTPPVLDSDGSFFLYSKLTVDKSRWQQGNVFSCSVMHEALHNHYTQKSLSLSPGK
light: DIQMTQSPSSLSASVGDRVTITCRASQDIRNDVGWYQQKPGKAPKRLIYAASRLQSGVPSRFSGSGSGTEFTLTISSLQPEDFATYYCLQHNSYPRTFGQGTKVEIKRTVAAPSVFIFPPSDEQLKSGTASVVCLLNNFYPREAKVQWKVDNALQSGNSQESVTEQDSKDSTYSLSSTLTLSKADYEKHKVYACEVTHQGLSSPVTKSFNRGEC
B2: E02-GL: germlined ZY0EQD-E02, VH SEQ ID NO: 45, VL SEQ ID NO: 34; antibody intermediate of E02-GL-SG3932 (antibody, V domains shown)
VH: QVQLQQWGAGLLKPSETLSLACTVYGGSFSGYYWNWIRQPPGKGLEWIGEINHSGSTSYNPSLKSRVTISVDTSKNQFSLKLSSVTAADTAVYYCARVLYNWNVDSWGQGTLVTVSS
VL: DIQMTQSPSSLSASVGDRVTITCRASQDIRNDVGWYQQKPGKAPKRLIYAASRLQSGVPSRFSGSGSGTEFTLTISSLQPEDFATYYCLQHNSYPRTFGQGTKVEIK

How the values were obtained:
SKBR-3 cells = assay: Caspase 3/7 activity (IncuCyte); assay type: cell-based, human
Experimental: SKBR-3 cells were treated with E02-GL-SG3249, SG3199 and Olaparib (control) and monitored for caspase 3/7 activity (e.g. apoptosis) by IncuCyte.

[1] = tested on: B7-H4 heterogeneous HT29 tumours (1:1 expressing and non-expressing); assay: Bystander killing in vivo
Source text: B7-H4 heterogeneous tumours were generated by co-implantation of B7-H4 expressing HT29 cell lines with non-expressing HT29 cells (1:1 ratio). […] This is highly advantageous, as the inventors have found B7-H4 to be heterogeneously expressed within tumours.

[2] = tested on: HT29 WT (not expressing B7-H4); assay: Bystander killing in vitro (conditioned medium); assay type: cell-based, human; settings: donor cells treated 4 days
Experimental: HT29 B7-H4 expressing cells were treated with E02-GL-SG3249 for 4 days, after which the conditioned medium was removed and added to HT29 WT (i.e. not expressing B7-H4).

[3] = tested on: non-transduced HEK 293 Jump In TREX cells; assay: Flow cytometry binding; assay type: cell-based; settings: B7-H4-negative
Source text: (§1) Flow cytometry was used to measure binding of antibody E02-INT to non-transduced HEK 293 Jump In TREX cells and to HEK 293 Jump In TREX cells stably expressing human, murine, or cynomolgus monkey B7-H4.

[4] = tested on: HEK 293 Jump In TREX cells stably expressing human B7-H4; assay: Flow cytometry binding; assay type: cell-based
Source text: as §1

[5] = tested on: HEK 293 Jump In TREX cells stably expressing cynomolgus monkey B7-H4; assay: Flow cytometry binding; assay type: cell-based
Source text: as §1

[6] = tested on: HEK 293 Jump In TREX cells stably expressing murine B7-H4; assay: Flow cytometry binding; assay type: cell-based; settings: listed as E02-INT
Source text: as §1

HT29 hB7H4 clone 44 = assay: E02-GL MESF on cell line; assay type: cell-based, human
human B7-H4 antigen = target: T1, human B7-H4 antigen (Homo sapiens, UniProt Q7Z7D3); assay: SPR, antibody capture method; assay type: binding
T1 sequence (Q7Z7D3 25-282): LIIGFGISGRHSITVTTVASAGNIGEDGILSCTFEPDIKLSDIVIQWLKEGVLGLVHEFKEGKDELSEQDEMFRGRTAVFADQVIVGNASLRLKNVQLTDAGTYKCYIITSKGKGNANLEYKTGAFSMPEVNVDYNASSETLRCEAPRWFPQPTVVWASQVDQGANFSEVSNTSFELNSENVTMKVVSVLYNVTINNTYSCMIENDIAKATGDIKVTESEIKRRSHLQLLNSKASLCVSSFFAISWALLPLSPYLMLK
Experimental: To assess whether conjugation of the topoisomerase 1 linker-warhead affected binding properties of the E02-INT antibody, the binding affinity of E02-INT and E02-GL-SG3932 were measured using a DELFIA-ELISA method and an SPR method. […] The kinetic rate constants (kon and koff) and equilibrium dissociation constants (KD) of E02-INT and E02-GL-SG3932 for human B7-H4 antigen was also determined by SPR, using an antibody capture method.

[7] = tested on: HT29-huB7-H4 Clone 4 and HT29-huB7-H4 Clone 26; assay: Flow cytometry binding; assay type: cell-based, human
Source text: (§2) Flow cytometry was used to measure binding of antibody E02-INT and E02-GL-SG3932 to the human breast cancer cell lines MX-1 and MDA-MB-468, and to engineered HT29 colon cancer cells stably expressing human B7-H4.

MX-1 cells = assay: Flow cytometry binding; assay type: cell-based, human; settings: endogenously-expressed B7-H4
Source text: as §2

MDA-MB-468 cells = assay: Flow cytometry binding; assay type: cell-based, human; settings: endogenously-expressed B7-H4
Source text: as §2

Molecule	caspase 3/7 activity (SKBR-3 cells)	growth suppression of heterogeneous xenografts [1]	viability of HT29 WT after conditioned medium from treated HT29 B7-H4 expressing cells [2]	cellular binding [3]	cellular binding [4]	cellular binding [5]	cellular binding [6]	E02-GL MESF (HT29 hB7H4 clone 44)	Ka (human B7-H4 antigen) [M⁻¹ s⁻¹]	Kd (human B7-H4 antigen) [nM]	Kd (s^−1) (human B7-H4 antigen) [s⁻¹]	Rmax (RU) (human B7-H4 antigen)	cellular binding [7]	cellular binding (MX-1 cells)	cellular binding (MDA-MB-468 cells)
B1	dose dependent increase	pronounced	rapid decrease in cell viability	–	–	–	–	–	–	–	–	–	–	–	–
B2	–	–	–	did not bind	bound	bound	bound; also recorded: reduced compared to cells expressing human or cynomolgus monkey B7-H4	147,125 MESF	93800	31.1	0.00292	56.8	bound similarly	bound	bound
